In publication PMC11257983 (2024):

B1: Flag-CNK^2–549 [Drosophila] / GST-HYP [Drosophila] (parent complex)
chain 1: AYINIAEWTPDQVTDWIKGLDESMKGYLYEFSKQEIGGRALLNIRPYELENLGMLRIGHQEIVLEAVENLRNFHYHLKNDNLQFMALHVATAAKNLHRELARNHAESTKIDTRILHDITRTIATLKPLVGSLERTPFRKQEMYREYCGNVLKCGLELATIAHRDRFALQPVPAIRQSAERLENLANFVIQDISDPMVLQPASLNLVTLKKRESELGFNIESSYNGIHRVTDIKYNSPAHNSGKIEDGDEIVQINYQTVVGWQHRTVLEHLREALPDVVLTVKKRPKHTKMFGQIYMQPYRLPSKKRNMAARWAAQMPSPRAAFLTLDTEQLATGGTGSAVPDPSKSLSSEKREVLTKANPVSSASDSDSSCSDIPTPTDPKLAAREIRLYYPKPRALLQRRNTICGCEYLSLKNSDLVVPSWHERKPGIGSPTNCDPGSPSIRDKSISFGYGLEMAARPTTCIGIAGDTSTDKARRMFHEARKLKQLTEDSQREFLVDRYKPGVSKVVRFDAKEDYVMKNEKFICNVENTILETFEPIPFADEGDEDA
chain 2: MGEETINSTQNKTRTKTTRPKAVYLWTVSDVLKWYRRHCGEYTQYEQLFAQHDITGRALLRITDSSLQRMGVTDNRDREAIWREIVKQRLKTDIMEIRDMERLNIY

Variants of: B1
Assay: GST pull-down, immunoblot quantification; S2 cells; GST-HYP + RRKM co-expressed; anti-Flag (CNK) blot; parent: 1

| Variant | ratio to parent |
| --- | --- |
| chain 1 AYINIAEWTPDQVTDWIKGLDESMKGYLYEFSKQEIGGRALLNIRPYELENLGMLRIGHQEIVLEAVENLRNFHYHLKNDNLQFMALHVATAAKNLHRELARNHAESTKIDTRILHDITRTIATLKPLVGSLERTPFRKQEMYREYCGNVLKCGLELATIAHRDRFALQPVPAIRQSAERLENLANFVIQDISDPMVLQPASLNLVTLKKRESELGFNIESSYNGIHRVTDIKYNSPAHNSGKIEDGDEIVQINYQTVVGWQHRTVLEHLREALPDVVLTVDKRPKHTKMFGQIYMQPYRLPSKKRNMAARWAAQMPSPRAAFLTLDTEQLATGGTGSAVPDPSKSLSSEKREVLTKANPVSSASDSDSSCSDIPTPTDPKLAAREIRLYYPKPRALLQRRNTICGCEYLSLKNSDLVVPSWHERKPGIGSPTNCDPGSPSIRDKSISFGYGLEMAARPTTCIGIAGDTSTDKARRMFHEARKLKQLTEDSQREFLVDRYKPGVSKVVRFDAKEDYVMKNEKFICNVENTILETFEPIPFADEGDEDA [chain 1 K282D] | 0.31 |
| chain 1 AYINIAEWTPDQVTDWIKGLDESMKGYLYEFSKQEIGGRALLNIRPYELENLGMLRIGHQEIVLEAVENLRNFHYHLKNRNLQFMALHVATAAKNLHRELARNHAESTKIDTRILHDITRTIATLKPLVGSLERTPFRKQEMYREYCGNVLKCGLELATIAHRDRFALQPVPAIRQSAERLENLANFVIQDISDPMVLQPASLNLVTLKKRESELGFNIESSYNGIHRVTDIKYNSPAHNSGKIEDGDEIVQINYQTVVGWQHRTVLEHLREALPDVVLTVKKRPKHTKMFGQIYMQPYRLPSKKRNMAARWAAQMPSPRAAFLTLDTEQLATGGTGSAVPDPSKSLSSEKREVLTKANPVSSASDSDSSCSDIPTPTDPKLAAREIRLYYPKPRALLQRRNTICGCEYLSLKNSDLVVPSWHERKPGIGSPTNCDPGSPSIRDKSISFGYGLEMAARPTTCIGIAGDTSTDKARRMFHEARKLKQLTEDSQREFLVDRYKPGVSKVVRFDAKEDYVMKNEKFICNVENTILETFEPIPFADEGDEDA [chain 1 D80R] | 1.03 |
| chain 1 AYINIAEWTPDQVTDWIKGLDESMKGYLYEFSKQEIGGRALLNIRPYELENLGMLRIGHQEIVLEAVENLRNFHYHLKNRNLQFMALHVATAAKNLHRELARNHAESTKIDTRILHDITRTIATLKPLVGSLERTPFRKQEMYREYCGNVLKCGLELATIAHRDRFALQPVPAIRQSAERLENLANFVIQDISDPMVLQPASLNLVTLKKRESELGFNIESSYNGIHRVTDIKYNSPAHNSGKIEDGDEIVQINYQTVVGWQHRTVLEHLREALPDVVLTVDKRPKHTKMFGQIYMQPYRLPSKKRNMAARWAAQMPSPRAAFLTLDTEQLATGGTGSAVPDPSKSLSSEKREVLTKANPVSSASDSDSSCSDIPTPTDPKLAAREIRLYYPKPRALLQRRNTICGCEYLSLKNSDLVVPSWHERKPGIGSPTNCDPGSPSIRDKSISFGYGLEMAARPTTCIGIAGDTSTDKARRMFHEARKLKQLTEDSQREFLVDRYKPGVSKVVRFDAKEDYVMKNEKFICNVENTILETFEPIPFADEGDEDA [chain 1 D80R, chain 1 K282D] | 0.73 |

Variants of: B1
Assay: GST pull-down, immunoblot quantification; S2 cells; only Flag-CNK2–549 and GST-HYP co-expressed; anti-Flag blot; parent: 1

| Variant | ratio to parent |
| --- | --- |
| chain 1 AYINIAEWTPDQVTDWIKGLDESMKGYLYEFSKQEIGGRALLNIRPYELENLGMLRIGHQEIVLEAVENLRNFHYHLKNDNLQFMALHVATAAKNLHRELARNHAESTKIDTRILHDITRTIATLKPLVGSLERTPFRKQEMYREYCGNVLKCGLELATIAHRDRFALQPVPAIRQSAERLENLANFVIQDISDPMVLQPASLNLVTLKKRESELGFNIESSYNGIHRVTDIKYNSPAHNSGKIEDGDEIVQINYQTVVGWQHRTVLEHLREALPDVVLTVDKRPKHTKMFGQIYMQPYRLPSKKRNMAARWAAQMPSPRAAFLTLDTEQLATGGTGSAVPDPSKSLSSEKREVLTKANPVSSASDSDSSCSDIPTPTDPKLAAREIRLYYPKPRALLQRRNTICGCEYLSLKNSDLVVPSWHERKPGIGSPTNCDPGSPSIRDKSISFGYGLEMAARPTTCIGIAGDTSTDKARRMFHEARKLKQLTEDSQREFLVDRYKPGVSKVVRFDAKEDYVMKNEKFICNVENTILETFEPIPFADEGDEDA [chain 1 K282D] | 0.4 |
| chain 1 AYINIAEWTPDQVTDWIKGLDESMKGYLYEFSKQEIGGRALLNIRPYELENLGMLRIGHQEIVLEAVENLRNFHYHLKNRNLQFMALHVATAAKNLHRELARNHAESTKIDTRILHDITRTIATLKPLVGSLERTPFRKQEMYREYCGNVLKCGLELATIAHRDRFALQPVPAIRQSAERLENLANFVIQDISDPMVLQPASLNLVTLKKRESELGFNIESSYNGIHRVTDIKYNSPAHNSGKIEDGDEIVQINYQTVVGWQHRTVLEHLREALPDVVLTVKKRPKHTKMFGQIYMQPYRLPSKKRNMAARWAAQMPSPRAAFLTLDTEQLATGGTGSAVPDPSKSLSSEKREVLTKANPVSSASDSDSSCSDIPTPTDPKLAAREIRLYYPKPRALLQRRNTICGCEYLSLKNSDLVVPSWHERKPGIGSPTNCDPGSPSIRDKSISFGYGLEMAARPTTCIGIAGDTSTDKARRMFHEARKLKQLTEDSQREFLVDRYKPGVSKVVRFDAKEDYVMKNEKFICNVENTILETFEPIPFADEGDEDA [chain 1 D80R] | 0.46 |
| chain 1 AYINIAEWTPDQVTDWIKGLDESMKGYLYEFSKQEIGGRALLNIRPYELENLGMLRIGHQEIVLEAVENLRNFHYHLKNRNLQFMALHVATAAKNLHRELARNHAESTKIDTRILHDITRTIATLKPLVGSLERTPFRKQEMYREYCGNVLKCGLELATIAHRDRFALQPVPAIRQSAERLENLANFVIQDISDPMVLQPASLNLVTLKKRESELGFNIESSYNGIHRVTDIKYNSPAHNSGKIEDGDEIVQINYQTVVGWQHRTVLEHLREALPDVVLTVDKRPKHTKMFGQIYMQPYRLPSKKRNMAARWAAQMPSPRAAFLTLDTEQLATGGTGSAVPDPSKSLSSEKREVLTKANPVSSASDSDSSCSDIPTPTDPKLAAREIRLYYPKPRALLQRRNTICGCEYLSLKNSDLVVPSWHERKPGIGSPTNCDPGSPSIRDKSISFGYGLEMAARPTTCIGIAGDTSTDKARRMFHEARKLKQLTEDSQREFLVDRYKPGVSKVVRFDAKEDYVMKNEKFICNVENTILETFEPIPFADEGDEDA [chain 1 D80R, chain 1 K282D] | 1.03 |
